In patent US20190284275A1:

B1: 1F4_5C5 (antibody, V domains shown)
VH: EVQLVQSGGGVVQPGRSLRLSCAASGFTSKKYGMHWVRQAPGKGLEWVAVISHDGSKKYYADSVKGRFTISRDNSKNTLFVQLSSLRPEDTAVYYCATSLYSSMDLWGQGTTVTVSS
VL: QSVVTQPPSVSAAPGQKVTISCSGSNSNIGKNYVSWFQQVPGTAPKLLIFEDNQRPSGIPDRFSASKSGTSASLAISGLQSEDEADYYCAAWDDLGGDHWVFGGGTKLTVL
B2: 1F4_5F8 (antibody, V domains shown)
VH: EVQLVQSGGGVVQPGRSLRLSCAASGFTSRNPGMHWVRQAPGKGLEWVAVISHDGSKKYYADSVKGRFTISRDNSKNTLFVQLSSLRPEDTAVYYCATSLYSSMDLWGQGTTVTVSS
VL: QSVVTQPPSVSAAPGQKVTISCSGSNSNIGKNYVSWFQQVPGTAPKLLIFEDNQRPSGIPDRFSASKSGTSASLAISGLQSEDEADYYCAAWDDSTGVHWVFGGGTKLTVL
B3: 1F4_1E3 (antibody, V domains shown)
VH: EVQLVQSGGGVVQPGRSLRLSCAASGFTSRHPGMHWVRQAPGKGLEWVAVISHDGSKKYYADSVKGRFTISRDNSKNTLFVQLSSLRPEDTAVYYCATSLYSSMDLWGQGTTVTVSS
VL: QSVVTQPPSVSAAPGQKVTISCSGSNSNIGKNYVSWFQQVPGTAPKLLIFEDNQRPSGIPDRFSASKSGTSASLAISGLQSEDEADYYCAAWDDYRGPHWVFGGGTKLTVL
B4: 1F4_4E10 (antibody, V domains shown)
VH: EVQLVQSGGGVVQPGRSLRLSCAASGFTSRAPGMHWVRQAPGKGLEWVAVISHDGSKKYYADSVKGRFTISRDNSKNTLFVQLSSLRPEDTAVYYCATSLYSSMDLWGQGTTVTVSS
VL: QSVVTQPPSVSAAPGQKVTISCSGSNSNIGKNYVSWFQQVPGTAPKLLIFEDNQRPSGIPDRFSASKSGTSASLAISGLQSEDEADYYCAAWDDHNGEHWVFGGGTKLTVL

Each binder was assayed against human KRAS (antigen of the affinity data in Table 1; variant not stated) (human) (UniProt P01116) (assay: kinetic affinity measurement (Rmax in RU; method and format not named)).
For B1, the Kd was 6.63 nM, the koff was 0.0011 s⁻¹ and the kon was 166000 M⁻¹ s⁻¹.
In the case of B2, the Kd is reported as 12.6 nM, the koff is reported as 0.00229 s⁻¹ and the kon is reported as 182000 M⁻¹ s⁻¹.
Binder B3 has a Kd of 4.2 nM.
For B4, the Kd was 9.6 nM, the koff was 0.0013 s⁻¹ and the kon was 135000 M⁻¹ s⁻¹.
